Laboratory results reported in US20230295310A1 (ABCELLERA BIOLOGICS, published 2023).

B1: GOMP001_bsAb_017 (bispecific antibody, human IgG1, kappa, L234A L235A)
heavy 1: QVQLVQSGAEVKKPGASVKVSCKASGYTFTSHWMHWVRKAPGQGLEWIGEFNPSNGRTNYNEEFKSKATMTVDTSTNTAYMELSSLRSEDTAVYYCASRDYDYDGRYFDYWGQGTLVTVSSASTKGPSVFPLAPSSKSTSGGTAALGCLVADYFPEPVTVSWNSGALTSGVHTFPAVLQSSGLYSLSSVVTVPSSSLGTQTYICNVNHKPSNTKVDEKVEPKSCDKTHTCPPCPAPEAAGGPSVFLFPPKPKDTLMISRTPEVTCVVVDVSHEDPEVKFNWYVDGVEVHNAKTKPREEQYNSTYRVVSVLTVLHQDWLNGKEYKCKVSNKALPAPIEKTISKAKGQPREPQVYTLPPSREEMTDNQVSLTCLVKGFYPSDIAVEWESNGQPENNYKTTPPVLMSDGSFFLASKLTVDKSRWQQGNVFSCSVMHEALHNHYTQKSLSLSPG
light 1: RIQMTQSPSSLSASVGDRVTITCSASSSVTYMYWYQDKPGKAPKLLIYDTSNLASGVPSRFSGSGSGTDYTFTISSLQPEDIATYYCQQWSSHIFTFGQGTKVEIKRTVAAPSVFIFPPSDKQLKSGTARVVCLLNNFYPREAKVQWKVDNALQSGNSQESVTEQDSKDSTYSLSSTLTLSKADYEKHKVYACEVTHQGLSSPVTKSFNRGEC
heavy 2: EVQLVESGGDLVQPGRSLRLSCAASGFTFDDCVIHWVRYAPGKGLEWVSGITWNSGRIGYADRVKGRFTISRDNAKNSLYLQMNSLRVEDTALYYCAKEGNYDFWSTYYRGYFDLWGRGTLVTVSSASTKGPSVFPLAPSSKSTSGGTAALGCLVKDYFPEPVTVSWNSGALTSGVHTFPAVLQSSGLYSLSSVVTVPSSSLGTQTYICNVNHKPSNTKVDKKVEPKSCDKTHTCPPCPAPEAAGGPSVFLFPPKPKDTLMISRTPEVTCVVVDVSHEDPEVKFNWYVDGVEVHNAKTKPREEQYNSTYRVVSVLTVLHQDWLNGKEYKCKVSNKALPAPIEKTISKAKGQPRRPRVYTLPPSREEMTKNQVSLVCLVKGFYPSDIAVEWESNGQPENNYKTTPPVLDSDGSFFLYSVLTVDKSRWQQGNVFSCSVMHEALHNHYTQKSLSLSPG
light 2: DIQMTQSPSSLSASVGDRVTITCRASQGIRNDLGWYQRKPGDAPKRLIYAASSLQGGVPLRFSGSGSGTEFTLTISSLQPEDFATYYCLQHNSYPYTFGQGTKLEIKRTVAAPSVFIFPPSDEQLKSGTASVVCLLNNFYPREAKVQWKVDNALQSGNSQESVTEQDSKDSTYSLSSTLTLSKADYEKHKVYACEVTHQGLSSPVTKSFNRGEC
B2: GOMP001_bsAb_018 (bispecific antibody, human IgG1, kappa, L234A L235A)
heavy 1: EVQLVESGGDLVQPGRSLRLSCAASGFTFDDCVIHWVRYAPGKGLEWVSGITWNSGRIGYADRVKGRFTISRDNAKNSLYLQMNSLRVEDTALYYCAKEGNYDFWSTYYRGYFDLWGRGTLVTVSSASTKGPSVFPLAPSSKSTSGGTAALGCLVKDYFPEPVTVSWNSGALTSGVHTFPAVLQSSGLYSLSSVVTVPSSSLGTQTYICNVNHKPSNTKVDKKVEPKSCDKTHTCPPCPAPEAAGGPSVFLFPPKPKDTLMISRTPEVTCVVVDVSHEDPEVKFNWYVDGVEVHNAKTKPREEQYNSTYRVVSVLTVLHQDWLNGKEYKCKVSNKALPAPIEKTISKAKGQPRRPRVYTLPPSREEMTKNQVSLVCLVKGFYPSDIAVEWESNGQPENNYKTTPPVLDSDGSFFLYSVLTVDKSRWQQGNVFSCSVMHEALHNHYTQKSLSLSPG
light 1: DIQMTQSPSSLSASVGDRVTITCRASQGIRNDLGWYQRKPGDAPKRLIYAASSLQGGVPLRFSGSGSGTEFTLTISSLQPEDFATYYCLQHNSYPYTFGQGTKLEIKRTVAAPSVFIFPPSDEQLKSGTASVVCLLNNFYPREAKVQWKVDNALQSGNSQESVTEQDSKDSTYSLSSTLTLSKADYEKHKVYACEVTHQGLSSPVTKSFNRGEC
heavy 2: QVQLVQSGAEVKKPGASVKVSCKASGYTFTSHWMHWVRYAPGQGLEWIGEFNPSNGRTNYNEKFKSKATMTVDTSTNTAYMELSSLRSEDTAVYYCASRDYDYDGRYFDYWGRGTLVTVSSASTKGPSVFPLAPSSKSTSGGTAALGCLVKDYFPEPVTVSWNSGALTSGVHTFPAVLQSSGLYSLSSVVTVPSSSLGTQTYICNVNHKPSNTKVDKKVEPKSCDKTHTCPPCPAPEAAGGPSVFLFPPKPKDTLMISRTPEVTCVVVDVSHEDPEVKFNWYVDGVEVHNAKTKPREEQYNSTYRVVSVLTVLHQDWLNGKEYKCKVSNKALPAPIEKTISKAKGQPRRPRVYTLPPSREEMTKNQVSLVCLVKGFYPSDIAVEWESNGQPENNYKTTPPVLDSDGSFFLYSVLTVDKSRWQQGNVFSCSVMHEALHNHYTQKSLSLSPG
light 2: DIQMTQSPSSLSASVGDRVTITCSASSSVTYMYWYQRKPGDAPKLLIYDTSNLASGVPSRFSGSGSGTDYTFTISSLQPEDIATYYCQQWSSHIFTFGQGTKVEIKRTVAAPSVFIFPPSDEQLKSGTASVVCLLNNFYPREAKVQWKVDNALQSGNSQESVTEQDSKDSTYSLSSTLTLSKADYEKHKVYACEVTHQGLSSPVTKSFNRGEC
B3: GOMP001_bsAb_019 (bispecific antibody, human IgG1, kappa, L234A L235A)
heavy 1: QVQLVQSGAEVKKPGASVKVSCKASGYTFTSHWMHWVRKAPGQGLEWIGEFNPSNGRTNYNEEFKSKATMTVDTSTNTAYMELSSLRSEDTAVYYCASRDYDYDGRYFDYWGQGTLVTVSSASTKGPSVFPLAPSSKSTSGGTAALGCLVADYFPEPVTVSWNSGALTSGVHTFPAVLQSSGLYSLSSVVTVPSSSLGTQTYICNVNHKPSNTKVDEKVEPKSCDKTHTCPPCPAPEAAGGPSVFLFPPKPKDTLMISRTPEVTCVVVDVSHEDPEVKFNWYVDGVEVHNAKTKPREEQYNSTYRVVSVLTVLHQDWLNGKEYKCKVSNKALPAPIEKTISKAKGQPREPQVYTLPPSREEMTDNQVSLTCLVKGFYPSDIAVEWESNGQPENNYKTTPPVLMSDGSFFLASKLTVDKSRWQQGNVFSCSVMHEALHNHYTQKSLSLSPG
light 1: RIQMTQSPSSLSASVGDRVTITCSASSSVTYMYWYQDKPGKAPKLLIYDTSNLASGVPSRFSGSGSGTDYTFTISSLQPEDIATYYCQQWSSHIFTFGQGTKVEIKRTVAAPSVFIFPPSDKQLKSGTARVVCLLNNFYPREAKVQWKVDNALQSGNSQESVTEQDSKDSTYSLSSTLTLSKADYEKHKVYACEVTHQGLSSPVTKSFNRGEC
heavy 2: EVQLVDSGGGLVQPGGSLRLSCSGSGFTFSSYWMSWVRYAPGKGLEWVANIKQDGSQKYYVDRVKGRFTISRDNVKNSLYLQMNSLRVEDTAVYYCARDESSSWYWYFDLWGRGTLVTVSSASTKGPSVFPLAPSSKSTSGGTAALGCLVKDYFPEPVTVSWNSGALTSGVHTFPAVLQSSGLYSLSSVVTVPSSSLGTQTYICNVNHKPSNTKVDKKVEPKSCDKTHTCPPCPAPEAAGGPSVFLFPPKPKDTLMISRTPEVTCVVVDVSHEDPEVKFNWYVDGVEVHNAKTKPREEQYNSTYRVVSVLTVLHQDWLNGKEYKCKVSNKALPAPIEKTISKAKGQPRRPRVYTLPPSREEMTKNQVSLVCLVKGFYPSDIAVEWESNGQPENNYKTTPPVLDSDGSFFLYSVLTVDKSRWQQGNVFSCSVMHEALHNHYTQKSLSLSPG
light 2: DIQMTQSPSTLSASVGDRVTLTCRASQNIVKWLAWYQRKPGDAPKLLIYKASSLESGVPSWFSGSGSGTEFTLTINSLQPDDFATYYCQQYYTYSRTFGQGTKVEIKRTVAAPSVFIFPPSDEQLKSGTASVVCLLNNFYPREAKVQWKVDNALQSGNSQESVTEQDSKDSTYSLSSTLTLSKADYEKHKVYACEVTHQGLSSPVTKSFNRGEC
B4: GOMP001_bsAb_020 (bispecific antibody, human IgG1, kappa, L234A L235A)
heavy 1: EVQLVDSGGGLVQPGGSLRLSCSGSGFTFSSYWMSWVRYAPGKGLEWVANIKQDGSQKYYVDRVKGRFTISRDNVKNSLYLQMNSLRVEDTAVYYCARDESSSWYWYFDLWGRGTLVTVSSASTKGPSVFPLAPSSKSTSGGTAALGCLVKDYFPEPVTVSWNSGALTSGVHTFPAVLQSSGLYSLSSVVTVPSSSLGTQTYICNVNHKPSNTKVDKKVEPKSCDKTHTCPPCPAPEAAGGPSVFLFPPKPKDTLMISRTPEVTCVVVDVSHEDPEVKFNWYVDGVEVHNAKTKPREEQYNSTYRVVSVLTVLHQDWLNGKEYKCKVSNKALPAPIEKTISKAKGQPRRPRVYTLPPSREEMTKNQVSLVCLVKGFYPSDIAVEWESNGQPENNYKTTPPVLDSDGSFFLYSVLTVDKSRWQQGNVFSCSVMHEALHNHYTQKSLSLSPG
light 1: DIQMTQSPSTLSASVGDRVTLTCRASQNIVKWLAWYQRKPGDAPKLLIYKASSLESGVPSWFSGSGSGTEFTLTINSLQPDDFATYYCQQYYTYSRTFGQGTKVEIKRTVAAPSVFIFPPSDEQLKSGTASVVCLLNNFYPREAKVQWKVDNALQSGNSQESVTEQDSKDSTYSLSSTLTLSKADYEKHKVYACEVTHQGLSSPVTKSFNRGEC
heavy 2: QVQLVQSGAEVKKPGASVKVSCKASGYTFTSHWMHWVRYAPGQGLEWIGEFNPSNGRTNYNEKFKSKATMTVDTSTNTAYMELSSLRSEDTAVYYCASRDYDYDGRYFDYWGRGTLVTVSSASTKGPSVFPLAPSSKSTSGGTAALGCLVKDYFPEPVTVSWNSGALTSGVHTFPAVLQSSGLYSLSSVVTVPSSSLGTQTYICNVNHKPSNTKVDKKVEPKSCDKTHTCPPCPAPEAAGGPSVFLFPPKPKDTLMISRTPEVTCVVVDVSHEDPEVKFNWYVDGVEVHNAKTKPREEQYNSTYRVVSVLTVLHQDWLNGKEYKCKVSNKALPAPIEKTISKAKGQPRRPRVYTLPPSREEMTKNQVSLVCLVKGFYPSDIAVEWESNGQPENNYKTTPPVLDSDGSFFLYSVLTVDKSRWQQGNVFSCSVMHEALHNHYTQKSLSLSPG
light 2: DIQMTQSPSSLSASVGDRVTITCSASSSVTYMYWYQRKPGDAPKLLIYDTSNLASGVPSRFSGSGSGTDYTFTISSLQPEDIATYYCQQWSSHIFTFGQGTKVEIKRTVAAPSVFIFPPSDEQLKSGTASVVCLLNNFYPREAKVQWKVDNALQSGNSQESVTEQDSKDSTYSLSSTLTLSKADYEKHKVYACEVTHQGLSSPVTKSFNRGEC

target: human EGFR, C-terminal eGFP-tagged, on CHO-K1 cells (human, UniProt P00533 25-1210); assay: cell-based or functional assay

Compared with B1, B2 is 2.5-fold lower in “EC50 CHO-K1 EGFR Low (nM); T cell activation bioassay, luciferase” value: 0.945 nM for the first, 0.377 nM for the second.

Compared with B3, B4 is 18-fold lower in “EC50 CHO-K1 EGFR Low (nM); T cell activation bioassay, luciferase” value: 4.27 nM for the first, 0.235 nM for the second.

Compared with B1, B2 is 2.3-fold lower in “EC50 CHO-K1 EGFR Med (nM); T cell activation bioassay, luciferase” value: 0.102 nM for the first, 0.0442 nM for the second.

Compared with B3, B4 is 25-fold lower in “EC50 CHO-K1 EGFR Med (nM); T cell activation bioassay, luciferase” value: 0.257 nM for the first, 0.0102 nM for the second.
